We go through five molecules from patent US12252714B2, “Halogenation of complex organic compounds” (REGENTS OF THE UNIVERSITY OF MICHIGAN, priority 2018, dated 2025).

The data set is described as follows: MalA biochemical activity assays, mutants versus wild-type MalA. The settings on record: for site-selectivity of chlorination: chlorination of compound 2, C8 versus C9. As to the method: Biochemical activity assays were performed in a 100 μL volume with the following components: 18 μM MalA, 54 μM HpaC flavin reductase,^3 100 μM FAD, 50 mM NaCl, 250 μM substrate, 5 mM NADH, and brought to total volume with reaction buffer (same as storage bufferNaBr). The chlorination reactions proceeded for 20 minutes and the bromination reactions proceeded overnight. The reactions were extracted with ethyl acetate ([…], in triplicate) and dried down under nitrogen gas. The dried extract was resuspended in LC/MS grade methanol to a concentration of around 10 μM for LC/MS analysis. High resolution mass spectrometry was performed using electrospray ionization on an Agilent quadrupole time-of-flight spectrometer (Q-TOF 6500 series). Biochemical activity was monitored via the following HPLC method using acetonitrile and water: 65% acetonitrile for 5 minutes, gradient over 10 minutes to 95% acetonitrile, 95% acetonitrile for 5 minutes, gradient over 2 minutes to 65% acetonitrile, 65% acetonitrile for 11 minutes to re-equilibrate with a flow rate of 0.3 mL/minute, monitoring at 240 nm on a Phenomenex Lux cellulose-3, cellulose Tris (4-methylbenzoate) 250×4.6 mm column.

B1: MalA H253F: MalA halogenase variant, His253 substituted with phenylalanine (protein, UniProt L0E155 1-667, looked up, variant H253F)
Flavin-dependent halogenase …: MAPTPKYTFTERAAAGNLSDAEILNSNNPTGSELPDESDVVVGGAGIHGLIYALHASKYKPNNLKISVIEKNTRPGYKIGESTLPIFYTWCKLHGISAAYLLRLFGLKDGLCFYFLDRENQGQYTDFCSVGAPGLVLASLQIERPMSELLFTILAQRNGVNVYHGREVDFKSTVVQGGGQGNKIAVSRGKYDSTPKTIDSALFVDATGRFRQFCSKKAPRHRFDGWNCNAFWGYFTAPKDESKIPFDLYEGDFTNHLCFPEGWVWVIRLPSWEGSLIANLMDMVTYILECADAGVPGDELPSSEELARMFGLKFQWVTSIGFAVRNDVKYPEDLSAYGTREAEQKFNYFVQKYELLQQFMSNFELIENLYGPGTTWFIRKTLAYQSPVVSGPGWLAIGDACGFTNPLYSPGINVGMSTSTWAAQLSHRIVEIGKSAPADAAESSIRKLLVPYDDYCKSLVPALEQMNRFNYVCYRDTRLGPQVACLWQFFAGIERYLSDVNIETFAHYAIKWVWGAMVPEYQQVAQKCIEHIETVPLDERLPDAMVDELLAFSNRIKSAAVAADDFSLRWDAILRSFDRSLNFVEGKTSRDIYTRQCSGCGAWLQLRPDWKKCHSCGLLGTEPQTAVTFDPPLTAEEEALLYAAWNTAPKYDPSKELKLPTPTRPAA
With B1, the site-selectivity of chlorination entry is recorded as “selectivity for producing the C8-chlorinated compound 4”. Moreover, the “site-selectivity profile of bromination” value (bromination of compound 2) was “same product profile as the wild-type MalA”.

B2: MalA S129 Å/P85S: C8-selective MalA halogenase double mutant (protein, UniProt L0E155 1-667, looked up, variant S129A P85S)
Flavin-dependent halogenase …: MAPTPKYTFTERAAAGNLSDAEILNSNNPTGSELPDESDVVVGGAGIHGLIYALHASKYKPNNLKISVIEKNTRPGYKIGESTLSIFYTWCKLHGISAAYLLRLFGLKDGLCFYFLDRENQGQYTDFCAVGAPGLVLASLQIERPMSELLFTILAQRNGVNVYHGREVDFKSTVVQGGGQGNKIAVSRGKYDSTPKTIDSALFVDATGRFRQFCSKKAPRHRFDGWNCNAFWGYFTAPKDESKIPFDLYEGDHTNHLCFPEGWVWVIRLPSWEGSLIANLMDMVTYILECADAGVPGDELPSSEELARMFGLKFQWVTSIGFAVRNDVKYPEDLSAYGTREAEQKFNYFVQKYELLQQFMSNFELIENLYGPGTTWFIRKTLAYQSPVVSGPGWLAIGDACGFTNPLYSPGINVGMSTSTWAAQLSHRIVEIGKSAPADAAESSIRKLLVPYDDYCKSLVPALEQMNRFNYVCYRDTRLGPQVACLWQFFAGIERYLSDVNIETFAHYAIKWVWGAMVPEYQQVAQKCIEHIETVPLDERLPDAMVDELLAFSNRIKSAAVAADDFSLRWDAILRSFDRSLNFVEGKTSRDIYTRQCSGCGAWLQLRPDWKKCHSCGLLGTEPQTAVTFDPPLTAEEEALLYAAWNTAPKYDPSKELKLPTPTRPAA
Take B2: the site-selectivity of chlorination entry is listed as “C8-selective”.

B3: S129A/I493S: C9-selective MalA halogenase double mutant (protein, listed as Malbranchea aurantiaca)
chain: MAPTPKYTFTERAAAGNLSDAEILNSNNPTGSELPDESDVVVGGAGIHGLIYALHASKYKPNNLKISVIEKNTRPGYKIGESTLPIFYTWCKLHGISAAYLLRLFGLKDGLCFYFLDRENQGQYTDFCAVGAPGLVLASLQIERPMSELLFTILAQRNGVNVYHGREVDFKSTVVQGGGQGNKIAVSRGKYDSTPKTIDSALFVDATGRFRQFCSKKAPRHRFDGWNCNAFWGYFTAPKDESKIPFDLYEGDHTNHLCFPEGWVWVIRLPSWEGSLIANLMDMVTYILECADAGVPGDELPSSEELARMFGLKFQWVTSIGFAVRNDVKYPEDLSAYGTREAEQKFNYFVQKYELLQQFMSNFELIENLYGPGTTWFIRKTLAYQSPVVSGPGWLAIGDACGFTNPLYSPGINVGMSTSTWAAQLSHRIVEIGKSAPADAAESSIRKLLVPYDDYCKSLVPALEQMNRFNYVCYRDTRLGPQVACLWQFFAGSERYLSDVNIETFAHYAIKWVWGAMVPEYQQVAQKCIEHIETVPLDERLPDAMVDELLAFSNRIKSAAVAADDFSLRWDAILRSFDRSLNFVEGKTSRDIYTRQCSGCGAWLQLRPDWKKCHSCGLLGTEPQTAVTFDPPLTAEEEALLYAAWNTAPKYDPSKELKLPTPTRPAA
modifications: MalA (S129A/I493S) protein
In the case of B3, the site-selectivity of chlorination result is recorded as “C9-selective”.

B4: MalA G131S: C9-selective MalA halogenase mutant (protein, UniProt L0E155 1-667, looked up, variant G131S)
Flavin-dependent halogenase …: MAPTPKYTFTERAAAGNLSDAEILNSNNPTGSELPDESDVVVGGAGIHGLIYALHASKYKPNNLKISVIEKNTRPGYKIGESTLPIFYTWCKLHGISAAYLLRLFGLKDGLCFYFLDRENQGQYTDFCSVSAPGLVLASLQIERPMSELLFTILAQRNGVNVYHGREVDFKSTVVQGGGQGNKIAVSRGKYDSTPKTIDSALFVDATGRFRQFCSKKAPRHRFDGWNCNAFWGYFTAPKDESKIPFDLYEGDHTNHLCFPEGWVWVIRLPSWEGSLIANLMDMVTYILECADAGVPGDELPSSEELARMFGLKFQWVTSIGFAVRNDVKYPEDLSAYGTREAEQKFNYFVQKYELLQQFMSNFELIENLYGPGTTWFIRKTLAYQSPVVSGPGWLAIGDACGFTNPLYSPGINVGMSTSTWAAQLSHRIVEIGKSAPADAAESSIRKLLVPYDDYCKSLVPALEQMNRFNYVCYRDTRLGPQVACLWQFFAGIERYLSDVNIETFAHYAIKWVWGAMVPEYQQVAQKCIEHIETVPLDERLPDAMVDELLAFSNRIKSAAVAADDFSLRWDAILRSFDRSLNFVEGKTSRDIYTRQCSGCGAWLQLRPDWKKCHSCGLLGTEPQTAVTFDPPLTAEEEALLYAAWNTAPKYDPSKELKLPTPTRPAA
For B4, the site-selectivity of chlorination entry is “C9-selective”.

B5: D109A: MalA halogenase D109A mutant (protein, listed as Malbranchea aurantiaca)
chain: MAPTPKYTFTERAAAGNLSDAEILNSNNPTGSELPDESDVVVGGAGIHGLIYALHASKYKPNNLKISVIEKNTRPGYKIGESTLPIFYTWCKLHGISAAYLLRLFGLKAGLCFYFLDRENQGQYTDFCSVGAPGLVLASLQIERPMSELLFTILAQRNGVNVYHGREVDFKSTVVQGGGQGNKIAVSRGKYDSTPKTIDSALFVDATGRFRQFCSKKAPRHRFDGWNCNAFWGYFTAPKDESKIPFDLYEGDHTNHLCFPEGWVWVIRLPSWEGSLIANLMDMVTYILECADAGVPGDELPSSEELARMFGLKFQWVTSIGFAVRNDVKYPEDLSAYGTREAEQKFNYFVQKYELLQQFMSNFELIENLYGPGTTWFIRKTLAYQSPVVSGPGWLAIGDACGFTNPLYSPGINVGMSTSTWAAQLSHRIVEIGKSAPADAAESSIRKLLVPYDDYCKSLVPALEQMNRFNYVCYRDTRLGPQVACLWQFFAGIERYLSDVNIETFAHYAIKWVWGAMVPEYQQVAQKCIEHIETVPLDERLPDAMVDELLAFSNRIKSAAVAADDFSLRWDAILRSFDRSLNFVEGKTSRDIYTRQCSGCGAWLQLRPDWKKCHSCGLLGTEPQTAVTFDPPLTAEEEALLYAAWNTAPKYDPSKELKLPTPTRPAA
modifications: Wild-type MalA protein
notes: MalA halogenase D109A mutant
In the case of B5, the “halogenase activity relative to wild-type MalA” value (chlorination of compound 2) is listed as “very low activity”.
